Laboratory results taken from patent US20240279310A1.
Where two headings read alike, the source gives them in different places.

Tests used:
[1] = molecular target: recombinant human APRIL (Tonbo Biosciences) (human) (UniProt O75888); experiment: cell-based or functional assay; set-up: IC50 APRIL (Δ TACI 30-110-Fc) / IC50 BAFF (Δ TACI 30-110-Fc): unit not given beside the values
[2] = molecular target: recombinant human BAFF (BioLegend) (human) (UniProt Q9Y275); experiment: cell-based or functional assay; set-up: IC50 APRIL (Δ TACI 30-110-Fc) / IC50 BAFF (Δ TACI 30-110-Fc): unit not given beside the values
[3] = molecular target: recombinant human APRIL (Tonbo Biosciences) (human) (UniProt O75888); experiment: cell-based or functional assay; set-up: IC50 APRIL (Δ TACI 30-110) / IC50 BAFF (Δ TACI 30-110): unit not given beside the values
[4] = molecular target: recombinant human BAFF (BioLegend) (human) (UniProt Q9Y275); experiment: cell-based or functional assay; set-up: IC50 APRIL (Δ TACI 30-110) / IC50 BAFF (Δ TACI 30-110): unit not given beside the values
[5] = molecular target: recombinant human BAFF (BioLegend) (human) (UniProt Q9Y275); experiment: cell-based or functional assay
[6] = molecular target: recombinant human APRIL (Tonbo Biosciences) (human) (UniProt O75888); experiment: cell-based or functional assay
[7] = molecular target: APRIL+BAFF (15 nM APRIL+10 nM BAFF) in combination; experiment: cell-based or functional assay
[8] = molecular target: recombinant human BAFF (BioLegend) (human) (UniProt Q9Y275)

Sequence of TACI 13-118-Fc (WT TACI 13-118, SEQ ID NO:131, fused to the Fc of SEQ ID NO: 73) (Fc fusion) (chain): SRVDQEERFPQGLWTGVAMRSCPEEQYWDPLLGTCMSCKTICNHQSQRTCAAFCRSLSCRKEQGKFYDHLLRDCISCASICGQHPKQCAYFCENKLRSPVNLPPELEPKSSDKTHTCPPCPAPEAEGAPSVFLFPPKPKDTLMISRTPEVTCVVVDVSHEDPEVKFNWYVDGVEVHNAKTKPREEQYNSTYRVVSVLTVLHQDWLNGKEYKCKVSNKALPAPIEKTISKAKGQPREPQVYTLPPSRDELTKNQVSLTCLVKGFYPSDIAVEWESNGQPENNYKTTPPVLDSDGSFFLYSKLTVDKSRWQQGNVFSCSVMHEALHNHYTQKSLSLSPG
Sequence of TACI 30-110-Fc (WT TACI 30-110, SEQ ID NO:130, fused to the Fc of SEQ ID NO: 73) (Fc fusion) (chain): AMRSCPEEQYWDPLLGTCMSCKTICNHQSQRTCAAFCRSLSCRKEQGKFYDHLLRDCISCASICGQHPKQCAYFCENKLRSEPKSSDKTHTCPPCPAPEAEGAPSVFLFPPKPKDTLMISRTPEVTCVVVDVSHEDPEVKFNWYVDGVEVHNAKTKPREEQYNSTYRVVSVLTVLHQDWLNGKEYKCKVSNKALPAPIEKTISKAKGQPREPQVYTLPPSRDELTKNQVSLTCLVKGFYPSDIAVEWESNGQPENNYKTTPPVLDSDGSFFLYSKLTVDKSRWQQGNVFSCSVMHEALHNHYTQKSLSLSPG
Sequence of recombinant human APRIL (Tonbo Biosciences) (human) (O75888 105-250 limits assumed): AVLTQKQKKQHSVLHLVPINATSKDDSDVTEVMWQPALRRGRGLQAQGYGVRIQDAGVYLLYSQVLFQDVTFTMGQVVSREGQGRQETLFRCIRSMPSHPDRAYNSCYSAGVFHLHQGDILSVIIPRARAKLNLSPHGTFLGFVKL
Sequence of Telitacicept/Tai'ai (RemeGen) (Fc fusion) (chain): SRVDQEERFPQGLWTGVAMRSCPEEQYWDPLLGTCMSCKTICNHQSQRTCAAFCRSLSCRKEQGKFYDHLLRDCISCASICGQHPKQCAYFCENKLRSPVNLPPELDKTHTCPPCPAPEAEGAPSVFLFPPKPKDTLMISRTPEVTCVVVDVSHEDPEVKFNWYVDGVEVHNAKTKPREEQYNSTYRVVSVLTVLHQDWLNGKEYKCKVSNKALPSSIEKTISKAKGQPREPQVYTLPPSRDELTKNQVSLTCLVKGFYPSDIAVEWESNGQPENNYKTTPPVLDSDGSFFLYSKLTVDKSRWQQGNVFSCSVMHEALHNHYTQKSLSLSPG

TACI 13-118-Fc (WT TACI 13-118, SEQ ID NO:131, fused to the Fc of SEQ ID NO: 73) (Fc fusion)
IC50 (nM) APRIL [1]: 9100 nM
IC50 APRIL (Δ TACI 30-110-Fc) [1]: 2.37
IC50 (nM) BAFF [2]: 7700 nM
IC50 BAFF (Δ TACI 30-110-Fc) [2]: 1.33
IC50 (nM) APRIL [3]: 7810 nM
IC50 APRIL (Δ TACI 30-110) [3]: 1.81
IC50 (nM) BAFF [4]: 8450 nM
IC50 BAFF (Δ TACI 30-110) [4]: 1.88
BAFF IC50 (pM) [5]: 7900 pM
BAFF IC50 (Δ WT) [5]: 4.26

TACI vTD-Fc with the vTD of SEQ ID NO: 24 (K77E, R84Q) (Fc fusion)
APRIL IC50 (pM) [6]: 4260 pM
APRIL IC50 (Δ WT) [6]: 0.35
BAFF IC50 (pM) [5]: 2260 pM
BAFF IC50 (Δ WT) [5]: 1.22

TACI vTD-Fc with the vTD of SEQ ID NO: 179 (Q75E, F78Y) (Fc fusion)
APRIL IC50 (pM) [6]: 13400 pM
APRIL IC50 (Δ WT) [6]: 1.09
BAFF IC50 (pM) [5]: 1790 pM
BAFF IC50 (Δ WT) [5]: 0.97

Telitacicept/Tai'ai (RemeGen) (Fc fusion)
IC50 (pM) BAFF + APRIL [7]: 16800 pM

TACI vTD-Fc with the vTD of SEQ ID NO: 181 (Q75E, Y102D) (Fc fusion)
APRIL IC50 (pM) [6]: 11100 pM
APRIL IC50 (Δ WT) [6]: 0.9
BAFF IC50 (pM) [5]: 2150 pM
BAFF IC50 (Δ WT) [5]: 1.16

TACI vTD-Fc with the vTD of SEQ ID NO: 188 (R84Q, Y102D) (Fc fusion)
APRIL IC50 (pM) [6]: 12300 pM
APRIL IC50 (Δ WT) [6]: 1
BAFF IC50 (pM) [5]: 1860 pM
BAFF IC50 (Δ WT) [5]: 1.01

TACI vTD-Fc with the vTD of SEQ ID NO: 178 (Q75E, K77E) (Fc fusion)
APRIL IC50 (pM) [6]: 10700 pM
APRIL IC50 (Δ WT) [6]: 0.87
BAFF IC50 (pM) [5]: 1890 pM
BAFF IC50 (Δ WT) [5]: 1.02

BAFF-R ECD (control) (receptor)
BAFF IC50 (pM) [5]: 53200 pM
BAFF IC50 (Δ WT) [5]: 28.7

TACI vTD-Fc with the vTD of SEQ ID NO: 177 (Q75E) (Fc fusion)
APRIL IC50 (pM) [6]: 1940 pM
APRIL IC50 (Δ WT) [6]: 0.16
BAFF IC50 (pM) [5]: 1460 pM
BAFF IC50 (Δ WT) [5]: 0.79

TACI vTD-Fc with the vTD of SEQ ID NO: 186 (F78Y, Y102D) (Fc fusion)
APRIL IC50 (pM) [6]: 8490 pM
APRIL IC50 (Δ WT) [6]: 0.69
BAFF IC50 (pM) [5]: 1960 pM
BAFF IC50 (Δ WT) [5]: 1.06

TACI vTD-Fc with the vTD of SEQ ID NO: 191 (K77E, F78Y) (Fc fusion)
APRIL IC50 (pM) [6]: 10100 pM
APRIL IC50 (Δ WT) [6]: 0.82
BAFF IC50 (pM) [5]: 1970 pM
BAFF IC50 (Δ WT) [5]: 1.06

TACI 13-118, with K77E/F78Y/Y102D, fused to the Fc of SEQ ID NO:73 (Fc fusion)
IC50 (nM) APRIL [3]: 848 nM
IC50 APRIL (Δ TACI 30-110) [3]: 0.2
IC50 (nM) BAFF [4]: 2050 nM
IC50 BAFF (Δ TACI 30-110) [4]: 0.46
APRIL IC50 (pM) [6]: 13200 pM
APRIL IC50 (Δ WT) [6]: 1.07
BAFF IC50 (pM) [5]: 1990 pM
BAFF IC50 (Δ WT) [5]: 1.07

TACI vTD-Fc with the vTD of SEQ ID NO: 187 (R84Q, A101D) (Fc fusion)
APRIL IC50 (pM) [6]: 11200 pM
APRIL IC50 (Δ WT) [6]: 0.91
BAFF IC50 (pM) [5]: 2350 pM
BAFF IC50 (Δ WT) [5]: 1.27

TACI vTD-Fc with the vTD of SEQ ID NO: 192 (K77E, Y102D) (Fc fusion)
APRIL IC50 (pM) [6]: 891 pM
APRIL IC50 (Δ WT) [6]: 0.07
BAFF IC50 (pM) [5]: 2180 pM
BAFF IC50 (Δ WT) [5]: 1.17

TACI vTD-Fc with the vTD of SEQ ID NO: 183 (F78Y) (Fc fusion)
APRIL IC50 (pM) [6]: 176 pM
APRIL IC50 (Δ WT) [6]: 0.01
BAFF IC50 (pM) [5]: 1640 pM
BAFF IC50 (Δ WT) [5]: 0.88

TACI vTD-Fc with the vTD of SEQ ID NO: 30 (R84Q) (Fc fusion)
IC50 (read off the curve) [8]: 0.001 µM
APRIL IC50 (pM) [6]: 566 pM
APRIL IC50 (Δ WT) [6]: 0.05
BAFF IC50 (pM) [5]: 5490 pM
BAFF IC50 (Δ WT) [5]: 2.96

TACI vTD-Fc with the vTD of SEQ ID NO: 180 (Q75E, A101D) (Fc fusion)
APRIL IC50 (pM) [6]: 20000 pM
APRIL IC50 (Δ WT) [6]: 1.62
BAFF IC50 (pM) [5]: 2360 pM
BAFF IC50 (Δ WT) [5]: 1.27

TACI vTD-Fc with the vTD of SEQ ID NO: 189 (A101D, Y102D) (Fc fusion)
APRIL IC50 (pM) [6]: 33600 pM
APRIL IC50 (Δ WT) [6]: 2.72
BAFF IC50 (pM) [5]: 1950 pM
BAFF IC50 (Δ WT) [5]: 1.05

TACI 30-110-Fc (WT TACI 30-110, SEQ ID NO:130, fused to the Fc of SEQ ID NO: 73) (Fc fusion)
IC50 (nM) APRIL [1]: 3850 nM
IC50 APRIL (Δ TACI 30-110-Fc) [1]: 1
IC50 (nM) BAFF [2]: 5770 nM
IC50 BAFF (Δ TACI 30-110-Fc) [2]: 1
IC50 (nM) APRIL [3]: 4320 nM
IC50 APRIL (Δ TACI 30-110) [3]: 1
IC50 (nM) BAFF [4]: 4490 nM
IC50 BAFF (Δ TACI 30-110) [4]: 1

TACI vTD-Fc with the vTD of SEQ ID NO: 182 (K77E, F78Y, R84Q) (Fc fusion)
APRIL IC50 (pM) [6]: 10100 pM
APRIL IC50 (Δ WT) [6]: 0.82
BAFF IC50 (pM) [5]: 2210 pM
BAFF IC50 (Δ WT) [5]: 1.19

29 TACI CRD2-Fc (TACI vTD SEQ ID NO:29, K77E/A101D/Y102D) (Fc fusion)
IC50 (nM) APRIL [1]: 339 nM
IC50 APRIL (Δ TACI 30-110-Fc) [1]: 0.09
IC50 (nM) BAFF [2]: 1340 nM
IC50 BAFF (Δ TACI 30-110-Fc) [2]: 0.23
APRIL IC50 (pM) [6]: 2910 pM
APRIL IC50 (Δ WT) [6]: 0.24
BAFF IC50 (pM) [5]: 1180 pM
BAFF IC50 (Δ WT) [5]: 0.64

27 TACI CRD2-Fc (TACI vTD SEQ ID NO:27, Q75E/R84Q) (Fc fusion)
IC50 (nM) APRIL [1]: 262 nM
IC50 APRIL (Δ TACI 30-110-Fc) [1]: 0.07
IC50 (nM) BAFF [2]: 1390 nM
IC50 BAFF (Δ TACI 30-110-Fc) [2]: 0.24
APRIL IC50 (pM) [6]: 11800 pM
APRIL IC50 (Δ WT) [6]: 0.96
BAFF IC50 (pM) [5]: 1460 pM
BAFF IC50 (Δ WT) [5]: 0.79

TACI vTD-Fc with the vTD of SEQ ID NO: 23 (A101D) (Fc fusion)
APRIL IC50 (pM) [6]: 8380 pM
APRIL IC50 (Δ WT) [6]: 0.68
BAFF IC50 (pM) [5]: 1830 pM
BAFF IC50 (Δ WT) [5]: 0.99

TACI vTD-Fc with the vTD of SEQ ID NO: 32 (K77E) (Fc fusion)
APRIL IC50 (pM) [6]: 159 pM
APRIL IC50 (Δ WT) [6]: 0.01
BAFF IC50 (pM) [5]: 1540 pM
BAFF IC50 (Δ WT) [5]: 0.83

TACI vTD-Fc with the vTD of SEQ ID NO: 25 (K77E, A101D) (Fc fusion)
APRIL IC50 (pM) [6]: 2040 pM
APRIL IC50 (Δ WT) [6]: 0.17
BAFF IC50 (pM) [5]: 1960 pM
BAFF IC50 (Δ WT) [5]: 1.06

TACI vTD-Fc with the vTD of SEQ ID NO: 185 (F78Y, A101D) (Fc fusion)
APRIL IC50 (pM) [6]: 2020 pM
APRIL IC50 (Δ WT) [6]: 0.16
BAFF IC50 (pM) [5]: 1850 pM
BAFF IC50 (Δ WT) [5]: 1

TACI vTD-Fc with the vTD of SEQ ID NO: 184 (F78Y, R84Q) (Fc fusion)
APRIL IC50 (pM) [6]: 2620 pM
APRIL IC50 (Δ WT) [6]: 0.21
BAFF IC50 (pM) [5]: 2260 pM
BAFF IC50 (Δ WT) [5]: 1.22

TACI vTD-Fc with the vTD of SEQ ID NO: 190 (Y102D) (Fc fusion)
APRIL IC50 (pM) [6]: 11600 pM
APRIL IC50 (Δ WT) [6]: 0.94
BAFF IC50 (pM) [5]: 1860 pM
BAFF IC50 (Δ WT) [5]: 1
